Experimental findings from patent US20210253679A1 (NATIONAL RESEARCH COUNCIL OF CANADA, published 2021) are described below.

Test [1] concerns the target T1, rat serum albumin (rat, UniProt P02770 25-608).
T1 construct: also called RSA
The test can be described thus: SPR, single cycle kinetics, pH 7.4.

For test [2], the target named is T2, human serum albumin (human, UniProt P02768 25-609).
T2 construct: also called HSA
The test is described as follows: SPR, single cycle kinetics, pH 7.4. For orientation: In SPR one partner is held on a chip, and binding of the other changes the refractive index at the surface.

Test [3] deals with T3, rhesus serum albumin (rhesus, UniProt Q28522 17-600).
T3 construct: also called RhSA
The test can be described thus: SPR, single cycle kinetics, pH 7.4.

For test [4], the target named is T1, rat serum albumin. The test is described as follows: SPR, single cycle kinetics, pH 5.5.
In test [5] the target is T2, human serum albumin. The test can be described thus: SPR, single cycle kinetics, pH 5.5.
For test [6], the target named is T3, rhesus serum albumin. The test can be described thus: SPR, single cycle kinetics, pH 5.5.
The target in test [7] is T2, human serum albumin. The test can be described thus: SPR, single-concentration injection over an HSA surface.
The target in test [8] is T2, human serum albumin. The test can be described thus: SPR, single cycle kinetics, pH 7.4. The source holds these as a separate data set.
The target in test [9] is T3, rhesus serum albumin. The test can be described thus: SPR, single cycle kinetics, pH 7.4. This is another data set of the same source.
The target of test [10] is T2, human serum albumin. The test can be described thus: SPR, single cycle kinetics, pH 5.5. The source holds these as a separate data set.
Test [11] addresses T3, rhesus serum albumin. The test can be described thus: SPR, single cycle kinetics, pH 5.5. The source holds these as a separate data set.

B1: R28-H5 (VHH)
VHH: QVQLVESGGGLVQPGGSLRLSCAASGRTFIAYAMGWFRQAPGKEREFVAAITNFAGGTTYYADSVKGRFTISRDNAKTTVYLQMNSLRAEDTAVYYCAADRSAQTMRQVRPVLPYWGQGTLVTVSS
In general, Kd refers to the equilibrium constant for the complex coming apart. As for B1, the equilibrium dissociation constant (Kd) is 0.4 nM with rat serum albumin [1]; 11.1 nM with human serum albumin [2]; 145 nM with rhesus serum albumin [3]; 3.5 nM in the test with rat serum albumin [4]; 2 nM in the test with human serum albumin [5]; 7.3 nM with rhesus serum albumin [6].

B2: R28-H1 (VHH)
VHH: EVQLVESGGGLVQPGGSLRLSCAASGRTFIAYAMGWFRQAPGKGLEFVSAITNFAGGTTYYADSVKGRFTISRDNSKNTLYLQMNSLRAEDTAVYYCAADRSAQTMRQVRPVLPYWGQGTLVTVSS
Regarding B2, the Kd was 5.3 nM with rat serum albumin [1]; 162 nM with human serum albumin [2]; 2710 nM in the test with rhesus serum albumin [3]; 6.5 nM with rat serum albumin [4]; 15.2 nM with human serum albumin [5]; 28.7 nM with rhesus serum albumin [6].

B3: B39-R28 (bispecific antibody, not shown: small tags and cut ends)
chain: QVQLVESGGGLVQAGGSLRLSCAASGLTFSRYVMGWFRQAPGKEREFVAAITWGGTPNYADSVKGRFTISRDNSKNTQYLQMNSLKPEDTAVYYCAAGLGWDSRYSQSYNYWGQGTQVTVSSGGGGSGGGGSGGGGSGGGGSGGGGSQVQLVESGGGLVQAGGSLRLSCVASGRTFIAYAMGWFRQAPGKEREFVAAITNFAGGTTYYADSVKGRFTISRDNAKTTVYLQMNSLKPEDTALYYCAADRSAQTMRQVRPVLPYWGQGTQVTVSS
Turning to B3, in the test with human serum albumin [7], the binding result was “binds”.

B4: Rh46 sdAb (VHH)
VHH: QVKLEESGGGLVQAGGSLRLSCTASTRTFSSYIMGWFRQAPGKERELVAAISWSGRMTHYADSVKGRFAISRDNAKNTVYLQMNVLKPEDTAIYSCAADRTTAWGAPRSQYDSWGQGTQVTVSS
notes: also called Rh46 VHH
Take B4: the Kd is 80 nM with human serum albumin [8]; 81 nM with rhesus serum albumin [9]; 80.1 nM in the test with human serum albumin [2]; 80.8 nM with rhesus serum albumin [3]; 41.3 nM with human serum albumin [5]; 29.6 nM with rhesus serum albumin [6]. In addition, the Kd was determined as 41 nM in the test with human serum albumin [10] and 30 nM in the test with rhesus serum albumin [11]. Moreover, the binding result with rat serum albumin [1] was “no binding”.

B5: Rh34 sdAb (VHH)
VHH: QVKLEESGGGLVQAGGSLRLSCAASGRTISLYAVGWFRRAPGKEREFVAAISWTDSSTYYADSVKGRFTISRDNAKNTVYLGMNSLNPEDTAVYYCAADVSIRGLQKYEYDYWGQGTQVTVSS
notes: also called Rh34 VHH
With B5, the dissociation constant (Kd) came out at 286 nM in the test with human serum albumin [8]; 333 nM with rhesus serum albumin [9]; 286 nM with human serum albumin [2]; 333 nM in the test with rhesus serum albumin [3]; 129 nM in the test with human serum albumin [5]; 167 nM with rhesus serum albumin [6]. Further, the Kd in the test with human serum albumin [10] was 129 nM; with rhesus serum albumin [11] it was 167 nM. In addition, the binding result in the test with rat serum albumin [1] is “no binding”.

B6: B39-R11 (bispecific antibody, not shown: small tags and cut ends)
chain: QVQLVESGGGLVQAGGSLRLSCAASGLTFSRYVMGWFRQAPGKEREFVAAITWGGTPNYADSVKGRFTISRDNSKNTQYLQMNSLKPEDTAVYYCAAGLGWDSRYSQSYNYWGQGTQVTVSSGGGGSGGGGSGGGGSGGGGSGGGGSQVKLEESGGGLVQAGGSLRLSCVGPGFLLRSNTMGWYRQAPGKERELVAFIRPSGLTNYNDAVQGRFTISRDNAKNTVYLQMNALKPEDTAVYYCHTRPPFQRDSWGQGTQVTVSS
Regarding B6, the binding result in the test with human serum albumin [7] is given as “binds”.

B7: H18 sdAb (VHH)
VHH: QVQLVESGGGLVQAGGSLRLSCTASGSIESINRMAWYRQAPGQQREFVARISKGGSTNYPDSVKGRFTISRDNAKNTVYLQMNSLKPEDTAVYYCAAGPVWEQFWGQGTQVTVSS
notes: also called H18 VHH
Take B7: the Kd with human serum albumin [8] is 34 nM; in the test with rhesus serum albumin [9], 48 nM; in the test with human serum albumin [2] it was 33.9 nM; with rhesus serum albumin [3], 47.6 nM; in the test with human serum albumin [5], 46.2 nM; in the test with rhesus serum albumin [6], 42.2 nM. Moreover, the Kd with human serum albumin [10] was determined as 46 nM; in the test with rhesus serum albumin [11] it was 42 nM. The binding result in the test with rat serum albumin [1] is given as “no binding”.

B8: M79-H4 (VHH)
VHH: QVQLVESGGGLVQPGGSLRLSCAASGSTFSSSSVGWYRQAPGQQRELVAAITSGGSTNTADSVKGRFTISRDNSKNTLYLQMNSLRAEDTAVYYCNVAGRNWVPISRYSPGPYWGQGTLVTVSS
Take B8: the Kd with rat serum albumin [1] came to 10 nM; with human serum albumin [2], 58.9 nM; with rhesus serum albumin [3], 38.7 nM; with rat serum albumin [4], 8.8 nM; in the test with human serum albumin [5], 8.4 nM; in the test with rhesus serum albumin [6], 2.9 nM.

B9: M79-H2 (VHH)
VHH: EVQLVESGGGLVQPGGSLRLSCAASGSTFSSSSVGWYRQAPGKGLELVSAITSGGSTNTADSVKGRFTISRDNSKNTLYLQMNSLRAEDTAVYYCNVAGRNWVPISRYSPGPYWGQGTLVTVSS
Take B9: the Kd came to 10.4 nM with rat serum albumin [1]; 76.2 nM with human serum albumin [2]; 62.1 nM in the test with rhesus serum albumin [3]; 5.9 nM with rat serum albumin [4]; 6.5 nM with human serum albumin [5]; 2.6 nM with rhesus serum albumin [6].

B10: M79-H5 (VHH)
VHH: QVQLVESGGGLVQPGGSLRLSCAASGSTFSSSSVGWYRQAPGQQRELVAAITSGGSTNTADSVKGRFTISRDNAKNTVYLQMNSLRAEDTAVYYCNVAGRNWVPISRYSPGPYWGQGTLVTVSS
Consider B10, for which the Kd in the test with rat serum albumin [1] was 20.2 nM; with human serum albumin [2] it was 103 nM; with rhesus serum albumin [3], 86.5 nM; in the test with rat serum albumin [4], 6.6 nM; in the test with human serum albumin [5], 8.1 nM; in the test with rhesus serum albumin [6], 4.2 nM.

B11: M79-H3 (VHH)
VHH: EVQLVESGGGLVQPGGSLRLSCAASGSTFSSSSVGWYRQAPGKQRELVSAITSGGSTNTADSVKGRFTISRDNSKNTLYLQMNSLRAEDTAVYYCNVAGRNWVPISRYSPGPYWGQGTLVTVSS
For B11, the Kd with rat serum albumin [1] was determined as 8.7 nM; with human serum albumin [2] it was 53.3 nM; with rhesus serum albumin [3], 36.7 nM; with rat serum albumin [4], 12.2 nM; in the test with human serum albumin [5], 9.6 nM; in the test with rhesus serum albumin [6], 2.9 nM.

B12: B39-M75 (bispecific antibody, not shown: small tags and cut ends)
chain: QVQLVESGGGLVQAGGSLRLSCAASGLTFSRYVMGWFRQAPGKEREFVAAITWGGTPNYADSVKGRFTISRDNSKNTQYLQMNSLKPEDTAVYYCAAGLGWDSRYSQSYNYWGQGTQVTVSSGGGGSGGGGSGGGGSGGGGSGGGGSQVQLVESGGGFVQAGGSLRLSCAASGRTFDNYVMAWFRQAPGKEREFVASISGSGSITNYANSVKDRFTISRDSAKNAIYLQMNSLKPEDTALYYCAAGSRRTYYREPKFYPSWGQGTQVTVSS
In the case of B12, the binding result with human serum albumin [7] is reported as “binds”.

B13: B39-M79 (bispecific antibody, not shown: small tags and cut ends)
chain: QVQLVESGGGLVQAGGSLRLSCAASGLTFSRYVMGWFRQAPGKEREFVAAITWGGTPNYADSVKGRFTISRDNSKNTQYLQMNSLKPEDTAVYYCAAGLGWDSRYSQSYNYWGQGTQVTVSSGGGGSGGGGSGGGGSGGGGSGGGGSQVKLEESGGGLVQAGGSLKLSCAASGSTFSSSSVGWYRQAPGQQRELVAAITSGGSTNTADSVKGRFTMSRDNAKNTVYLQMRDLKPEDTAVYYCNVAGRNWVPISRYSPGPYWGQGTQVTVSS
With B13, the binding result with human serum albumin [7] is “binds”.

B14: B39 (VHH, not shown: small tags and cut ends)
VHH: QVQLVESGGGLVQAGGSLRLSCAASGLTFSRYVMGWFRQAPGKEREFVAAITWGGTPNYADSVKGRFTISRDNSKNTQYLQMNSLKPEDTAVYYCAAGLGWDSRYSQSYNYWGQGTQVTVSS
notes: also called B39-HA-His6; B39 control
In the case of B14, the binding result with human serum albumin [7] is reported as “no binding (tested: not printed (single concentration))”.
